This passage reports abundance fitness results from the Human Domainome abundance scans (Beltran et al. 2025).

± gives the uncertainty stated by the source.

The chains are these.
B1: Protein piccolo, residues 1058 to 1114; numbered along this chain, Q9Y6V0 (parent)
chain: TCPLCKTELNIGSKDPPNFNTCTECKNQVCNLCGFNPTPHLTEIQEWLCLNCQTQRA

Variants of B1 are the subject of this data set. Kind of data set: abundance fitness (aPCA) (normalised: wild type 0, dead -1); higher = more abundant; growth selection in yeast, the domain comes from the species named. Conditions: Homo sapiens.
In the case of TCPLCKTELNIGSKDPPNFNTCTECKNQVCNLCGSNPTPHLTEIQEWLCLNCQTQRA [F35S], the abundance fitness amounted to 0.236 ± 0.084.

Take TCPLCKTELNIGSKDPPNFNTCTECKNQVCNLCGCNPTPHLTEIQEWLCLNCQTQRA [F35C]: the abundance fitness was 0.019 ± 0.13.

As for TCPLCKTELNIGSKDPSNFNTCTECKNQVCNLCGFNPTPHLTEIQEWLCLNCQTQRA [P17S], the abundance fitness is -0.175 ± 0.11.

Take TMPLCKTELNIGSKDPPNFNTCTECKNQVCNLCGFNPTPHLTEIQEWLCLNCQTQRA [C2M]: the abundance fitness is -0.983 ± 0.27.

For the variant TFPLCKTELNIGSKDPPNFNTCTECKNQVCNLCGFNPTPHLTEIQEWLCLNCQTQRA [C2F], the abundance fitness was -1.11 ± 0.2.

TCPLCKTELNIGSKDPPNFNTCTECKNQVCNLCGFNPTPTLTEIQEWLCLNCQTQRA [H40T]: the abundance fitness was determined as 0.185 ± 0.14.

For the variant TCPLCKTELNIGSKDPPNFNTCTECKNQFCNLCGFNPTPHLTEIQEWLCLNCQTQRA [V29F], the abundance fitness was -0.217 ± 0.075.

As for TCPLCKTELNIGSKDPPNFNTCTECKNQQCNLCGFNPTPHLTEIQEWLCLNCQTQRA [V29Q], the abundance fitness is -0.212 ± 0.099.

Turning to TCPLCKTELNIGSKDPPNFNTCTECKNQVCNLCGFNPTSHLTEIQEWLCLNCQTQRA [P39S], the abundance fitness was 0.069 ± 0.093.

Take TCPLCKTELNIGSKDPPNFNTCTECKNSVCNLCGFNPTPHLTEIQEWLCLNCQTQRA [Q28S]: the abundance fitness was 0.007 ± 0.095.

In the case of TCPLCKTELNIGSKDPPNFNTCTECKNNVCNLCGFNPTPHLTEIQEWLCLNCQTQRA [Q28N], the abundance fitness was -0.125 ± 0.18.

TCPLCKTELNIGSKDPPNFNTCTECKNQVCNLCGFNPTPHLTEIQENLCLNCQTQRA [W47N]: the abundance fitness was -0.354 ± 0.29.

For TCPLCKTELNIGSKDPPNFNTCTECHNQVCNLCGFNPTPHLTEIQEWLCLNCQTQRA [K26H], the abundance fitness is -0.253 ± 0.29.

For the variant TCPLCKTELNIGSKDPPNFNTCTECSNQVCNLCGFNPTPHLTEIQEWLCLNCQTQRA [K26S], the abundance fitness amounted to 0.119 ± 0.1.

As to TCPLCKTELNIGSKDPPNFNTCTECWNQVCNLCGFNPTPHLTEIQEWLCLNCQTQRA [K26W], the abundance fitness was -0.022 ± 0.11.

With TCPLCKTELNIGSKDPPNFNTCTECKIQVCNLCGFNPTPHLTEIQEWLCLNCQTQRA [N27I], the abundance fitness stood at 0.004 ± 0.2.

Regarding TCPLCKTELNIGSKDPPNFNTCTECKRQVCNLCGFNPTPHLTEIQEWLCLNCQTQRA [N27R], the abundance fitness was 0.106 ± 0.096.

Turning to TCPLCKTELNIGSKDPPNFNTCTECKCQVCNLCGFNPTPHLTEIQEWLCLNCQTQRA [N27C], the abundance fitness worked out at 0.169 ± 0.18.

Regarding TCPLCKHELNIGSKDPPNFNTCTECKNQVCNLCGFNPTPHLTEIQEWLCLNCQTQRA [T7H], the abundance fitness is -0.168 ± 0.14.

On to TCPLCKTELNIGSKDPPNFNTCTECKNQVCNLCGFNPTPHLTEIQEWLALNCQTQRA [C49A], for which the abundance fitness is -0.66 ± 0.13.

TCPLCKTELNIGSKDPPNFNTCTECKNQVCNLCGFNPTPHLTEIQEWLELNCQTQRA [C49E]: the abundance fitness was -1.01 ± 0.24.

For TCPLCKTELNIGSKDPPNFNTCTECKNQVCNLCGFNPTPHLTEIQEWLTLNCQTQRA [C49T], the abundance fitness was -1.06 ± 0.26.

With TCPLEKTELNIGSKDPPNFNTCTECKNQVCNLCGFNPTPHLTEIQEWLCLNCQTQRA [C5E], the abundance fitness was -0.812 ± 0.16.

As to TCPLCKTELNIGSKDPPNFNTCTEYKNQVCNLCGFNPTPHLTEIQEWLCLNCQTQRA [C25Y], the abundance fitness is -0.651 ± 0.12.

In the case of TCPLCKTELNIGSKDPPNFNTCTECKNQVCNLCGFNPTPHLTEIQEWCCLNCQTQRA [L48C], the abundance fitness is 0.164 ± 0.15.

In the case of TCPLCKTELNIGSKDPPNFNTCTECKNQVCNLCGFNPTPHLTEIQEWTCLNCQTQRA [L48T], the abundance fitness is -0.089 ± 0.14.

TCPLCKTELNIGSKDPPNFNTCTECKNQVCNLCGFNPTPHLTEIQEWNCLNCQTQRA [L48N]: the abundance fitness is -0.063 ± 0.17.

For TCPLCKTELNIGSKDPPNFNTCTECKNQVCNLCGFNPTPHLTEIVEWLCLNCQTQRA [Q45V], the abundance fitness was 0.046 ± 0.14.

Regarding TCPLCKTELNIGSKDPPNFNTCTECKNQVCNLCGFNPTPHLTEIYEWLCLNCQTQRA [Q45Y], the abundance fitness was determined as 0.047 ± 0.2.

In the case of TCPLCKTELNIGSKDPPNFNTCTECKNQVCNLCQFNPTPHLTEIQEWLCLNCQTQRA [G34Q], the abundance fitness was -0.072 ± 0.15.

On to TCPLCKTELNIGSKDPPNFNTCTECKNQVCNLCPFNPTPHLTEIQEWLCLNCQTQRA [G34P], for which the abundance fitness was -0.63 ± 0.17.

As to TCPLCKTELNIGSKDPPNFNTCTECKNQVCNLCMFNPTPHLTEIQEWLCLNCQTQRA [G34M], the abundance fitness was -0.643 ± 0.12.

In the case of TCPLCKTELNIGSKDPPNFNTCTECKNQVCNLCYFNPTPHLTEIQEWLCLNCQTQRA [G34Y], the abundance fitness is -0.15 ± 0.13.

For the variant TCPLCKTELNIGSKDPPNFNTCTECKNQVCNLCTFNPTPHLTEIQEWLCLNCQTQRA [G34T], the abundance fitness was -1.02 ± 0.15.

Consider TCPLCKTELNIGSKDPPNFNTCEECKNQVCNLCGFNPTPHLTEIQEWLCLNCQTQRA [T23E], for which the abundance fitness is -0.043 ± 0.14.

With TCPLCKTELNIGSKDPPNFNTCLECKNQVCNLCGFNPTPHLTEIQEWLCLNCQTQRA [T23L], the abundance fitness is -0.163 ± 0.1.

TCPLCKTELNIGSKDPPNFNTCDECKNQVCNLCGFNPTPHLTEIQEWLCLNCQTQRA [T23D]: the abundance fitness worked out at 0.041 ± 0.19.

Consider TCPLCKTELNIGSKDPPNFNTRTECKNQVCNLCGFNPTPHLTEIQEWLCLNCQTQRA [C22R], for which the abundance fitness is -0.484 ± 0.11.

As for TCPLCKTELNIGSKDPPNFNTGTECKNQVCNLCGFNPTPHLTEIQEWLCLNCQTQRA [C22G], the abundance fitness is -0.69 ± 0.11.

For the variant TCPLCKTELNIGSKDPPNFNTKTECKNQVCNLCGFNPTPHLTEIQEWLCLNCQTQRA [C22K], the abundance fitness is -0.818 ± 0.24.

Turning to TCPLCKTELNIGSKDPPNFNTLTECKNQVCNLCGFNPTPHLTEIQEWLCLNCQTQRA [C22L], the abundance fitness is -0.675 ± 0.11.

With TCPLCKTELNIGSKDPPNFNTCTECKNQVCNLCGFNVTPHLTEIQEWLCLNCQTQRA [P37V], the abundance fitness is 0.14 ± 0.1.

TCPLCKTELNIGSKDPPNFNTCTECKNQVCNLCGFNKTPHLTEIQEWLCLNCQTQRA [P37K]: the abundance fitness is -0.054 ± 0.17.

Turning to TCPLCKTELNIGSKDPPNFNTCTECKNQVCNLCGFNPTPHLTEIQEWLCSNCQTQRA [L50S], the abundance fitness was found to be 0.141 ± 0.097.

For TCPLCKTELNIGSKDPPNFNTCTECKNQVCNLCGFNPTPHLTEIQEWLCQNCQTQRA [L50Q], the abundance fitness turned out to be 0.15 ± 0.25.

Turning to TCPLCKTELNIGSKDPPNFNTCTECKNQVCNLCGFNPTPHLTEIQEWLCVNCQTQRA [L50V], the abundance fitness was found to be 0.102 ± 0.099.
